Measurements as given in patent publication US20080206230A1 (INSTITUT PASTEUR, published 2008).

Molecular target: T1, rat NEP ecto-endopeptidase (renal tissue) (rat, UniProt P07861 2-750)
T1 sequence (looked up): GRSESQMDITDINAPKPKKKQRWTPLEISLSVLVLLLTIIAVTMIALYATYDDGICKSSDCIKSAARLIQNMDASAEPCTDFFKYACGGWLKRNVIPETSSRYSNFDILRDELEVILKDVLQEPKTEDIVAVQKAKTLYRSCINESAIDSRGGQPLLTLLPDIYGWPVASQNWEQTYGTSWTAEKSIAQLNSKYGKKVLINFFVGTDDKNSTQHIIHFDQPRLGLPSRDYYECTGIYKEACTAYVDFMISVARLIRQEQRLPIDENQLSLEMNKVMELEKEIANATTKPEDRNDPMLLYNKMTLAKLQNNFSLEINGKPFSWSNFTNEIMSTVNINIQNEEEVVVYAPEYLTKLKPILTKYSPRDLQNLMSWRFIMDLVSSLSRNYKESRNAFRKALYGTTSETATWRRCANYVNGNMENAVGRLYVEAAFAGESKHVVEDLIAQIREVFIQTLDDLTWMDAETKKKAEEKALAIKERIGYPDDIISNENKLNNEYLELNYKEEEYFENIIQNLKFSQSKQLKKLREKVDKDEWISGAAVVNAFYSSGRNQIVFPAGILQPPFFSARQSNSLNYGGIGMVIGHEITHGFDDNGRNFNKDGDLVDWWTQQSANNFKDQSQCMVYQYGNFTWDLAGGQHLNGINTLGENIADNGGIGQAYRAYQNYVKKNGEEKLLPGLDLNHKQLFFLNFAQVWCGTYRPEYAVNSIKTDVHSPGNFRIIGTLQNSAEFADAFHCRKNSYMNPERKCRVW
Assay: cell-based or functional assay

## QRFSR [QRFSR peptide]
  inhibitory efficiency towards rat renal NEP relative to human cell surface NEP (LNCaP): ≥ 10 fold lower
